Measurements published in patent publication US20240207461A1, “RADIOACTIVE ANTITUMOR AGENT” (NIHON MEDI-PHYSICS CO., LTD., priority 2021, published 2024).

Tests used:
[1] = tested on: SW1990 tumor-bearing mice; test: Biodistribution and excretion route 168 hr after administration of ^111In-labeled antibodies; assay type: in vivo, Balb/c nude mice; conditions: for biodistribution at 168 hr after administration, blood / biodistribution at 168 hr after administration, kidney / biodistribution at 168 hr after administration, liver / biodistribution at 168 hr after administration, spleen / biodistribution at 168 hr after administration, tumor: ^111In-labeled antibody, tail vein, mean ± SD n=4 (n=3 for H02L04)
Experimental: (§1) Human pancreatic cancer cell line SW1990 (0.7×10^7 cells) were subcutaneously administered to Balb/c nude mice (male) from the flank to the back thereof.
(§2) When the tumor size reached about 150-300 mm^3 14 days after transplantation of SW1990, various ^111In-labeled antibodies prepared in Reference Example 1-1 were administered from the tail vein of the mice. The tumor volume was calculated from the following calculation formula.
A graph showing the results of confirming the biodistribution and the excretion route after the completion of SPECT-CT imaging 168 hr after administration are shown in FIG. 11.
(§3) In the Table, the tumor volume was calculated assuming 150 mm^3 in the absorbed dose of SPECT. The absorbed dose of the liver was calculated based on the mean (1.15±0.14 g, n=19) of the weight of the mouse liver used in this Reference Example. The numerical value of the biodistribution was expressed by the mean±standard deviation of n=4 (however, n=3 for H02L04).

[2] = tested on: SW1990 tumor-bearing mice; test: SPECT-CT imaging of ^111In-labeled antibodies, VOI analysis and absorbed dose calculation; assay type: in vivo, Balb/c nude mice; conditions: for SPECT absorbed dose liver / SPECT absorbed dose tumor: half-life converted from ^111In to ^225Ac, sphere model; for SPECT absorbed dose liver: mean liver weight 1.15 g; for SPECT absorbed dose tumor: tumor volume assumed 150 mm^3; for maximum tolerated dose (threshold dose/absorbed dose): threshold dose of liver assumed to be 30 Gy
Experimental: To find an anti-MUC5AC antibody with high tumor accumulation ability and high maximum tolerated dose, various antibodies were labeled with ^111In, administered to tumor-bearing mice, and SPECT-CT imaging was performed. Cumulative amount of radioactivity and absorbed dose in tumor and liver were calculated and compared using the obtained images.
as §1, §2
SPECT-CT imaging (small animal SPECT-CT apparatus: FX-3000, manufactured by Trifoil) was performed under the conditions in the following Table. The time points for imaging were 1, 6, 24, 48, 72, and 168 hr after administration. Image reconstruction was performed by the OSEM method for SPECT and the FBP method for CT. A VOI (volume of interest, three-dimensional ROI) analysis of the tumor and liver at each time point was performed. The count number per organ volume was corrected to % ID/g, the physical half-life was converted from ^111In to ^225Ac, the difference in physical half-life was corrected, and the time activity curve with the biological half-life added was obtained. The cumulative radioactivity amount was calculated from the integrated value of this time activity curve, and the absorbed dose was calculated in a sphere model (OLINDA/EXM ver2.0), and this was compared and examined for each antibody. However, for H01L03, a decrease in the time activity curve was not observed 168 hr after administration. Thus, the biological half-life was not considered and only the physical half-life was added.
When the threshold dose of liver was assumed to be 30 Gy, the maximum tolerated dose was estimated to be 3.90 MBq with a humanized antibody (H01L03) and 0.43 MBq with a chimeric antibody. The maximum tolerated dose (MBq) was calculated by threshold dose (Gy)/absorbed dose (Gy/MBq).
as §3

[3] = ^111In-labeled antibodies, SPECT-CT up to 168 hr

Molecule | blood retention ([1]; 168 hr after administration) | excretion ([1]; 168 hr after administration) | biodistribution at 168 hr after administration, blood [1] [% ID/g] | biodistribution at 168 hr after administration, kidney [1] [% ID/g] | biodistribution at 168 hr after administration, liver [1] [% ID/g] | biodistribution at 168 hr after administration, spleen [1] [% ID/g] | biodistribution at 168 hr after administration, tumor [1] [% ID/g] | decrease in the time activity curve ([2]; 168 hr after administration) | accumulation in the tumor (comparison among antibodies) [2, 3] | SPECT absorbed dose liver [2] [Gy/MBq] | SPECT absorbed dose tumor [2] [Gy/MBq] | maximum tolerated dose (threshold dose/absorbed dose) [2] [MBq] | accumulation in the liver (comparison among antibodies) [2, 3]
H01L03: anti-MUC5AC humanized antibody, heavy chain variable region H01 (SEQ ID NO: 1), light chain L03 (SEQ ID NO: 7), tested ^111In-labeled via DOTA-PEG-peptide (conjugate, 111In-DOTA-PEG-peptide label; Humanaized antibody heavy chain variable region 1 (H01); Humanaized antibody light chain variable region 3 (L03)) VH: EVQLLESGGGLVQPGGSLRLSCAASGFTFSNYGMSWVRQAPGKGLEWVSTISNSGRYTYFPDSVKGRFTISRDNSKNTLYLQMNSLRAEDTALYYCTRHLDYANYDAMDYWGQGTLVTVSS VL: DIQMTQSPSSLSASVGDRVTITCRASKSVTTSDFSYMHWYQQKPGKSPKLLIYLASNLESGVPSRFSGSGSGTDFSLTISSLQPEDFATYYCQHSREFPWTFGGGTKVEIK | high | slowest | 5.3 ± 1.3 | 2.5 ± 0.4 | 3.6 ± 1.7 | 5.4 ± 0.8 | 24.2 ± 3.9 | not observed | highest | 7.7 | 35.0 | 3.90 | –
H04L04: anti-MUC5AC humanized antibody, H04 (SEQ ID NO: 4) and L04 (SEQ ID NO: 8), tested ^111In-labeled (conjugate, 111In label; Humanaized antibody heavy chain variable region 4 (H04); Humanaized antibody light chain variable region 4 (L04)) VH: EVQLLESGGGLVQPGGSLRLSCAVSGFTFSNYGMSWVRQAPGKGLEWVSTISNSGRYTYFPDSVKGRFTISRDNSRNTLYLQMNTLRAEDTAVYYCTRHLDYANYDAMDYWGQGTPVTVSS VL: DIVMTQSPDSLAVSLGERATINCKASKSVTTSDFSYLHWYQQKPGQPPKLLIYLASNLESGVPDRFSGSGSGTDFTLTISSLQAEDVAVYYCQHSREFPWTFGGGTKLEIK | – | – | 3.8 ± 0.7 | 1.6 ± 0.2 | 3.9 ± 1.4 | 3.4 ± 0.3 | 17.2 ± 4.2 | – | – | 35.4 | 15.0 | – | –
H01L04: anti-MUC5AC humanized antibody, H01 (SEQ ID NO: 1) and L04 (SEQ ID NO: 8), tested ^111In-labeled (conjugate, 111In label; Humanaized antibody heavy chain variable region 1 (H01); Humanaized antibody light chain variable region 4 (L04)) VH: EVQLLESGGGLVQPGGSLRLSCAASGFTFSNYGMSWVRQAPGKGLEWVSTISNSGRYTYFPDSVKGRFTISRDNSKNTLYLQMNSLRAEDTALYYCTRHLDYANYDAMDYWGQGTLVTVSS VL: DIVMTQSPDSLAVSLGERATINCKASKSVTTSDFSYLHWYQQKPGQPPKLLIYLASNLESGVPDRFSGSGSGTDFTLTISSLQAEDVAVYYCQHSREFPWTFGGGTKLEIK | – | – | 2.1 ± 0.8 | 1.1 ± 0.3 | 3.1 ± 0.9 | 3.8 ± 1.2 | 12.9 ± 2.6 | – | – | 33.4 | 15.3 | – | –
H02L04: anti-MUC5AC humanized antibody, H02 (SEQ ID NO: 2) and L04 (SEQ ID NO: 8), tested ^111In-labeled (conjugate, 111In label; Humanaized antibody heavy chain variable region 2 (H02); Humanaized antibody light chain variable region 4 (L04)) VH: LVQLVESGGGVVRPGGSLRLSCAASGFTFSNYGMSWIRQAPGKGLEWVSTISNSGRYTYFPDSVKGRFTISRDNAKNSLYLQMNSLRAEDTALYYCTRHLDYANYDAMDYWGQGTLVTVSS VL: DIVMTQSPDSLAVSLGERATINCKASKSVTTSDFSYLHWYQQKPGQPPKLLIYLASNLESGVPDRFSGSGSGTDFTLTISSLQAEDVAVYYCQHSREFPWTFGGGTKLEIK | – | – | 2.6 ± 2.3 | 1.4 ± 1.0 | 2.7 ± 0.7 | 4.0 ± 3.0 | 15.6 ± 6.2 | – | – | 27.0 | 13.7 | – | –
chimeric antibody: anti-MUC5AC chimeric antibody disclosed in Patent Literature 1 (SEQ ID NOs: 23 and 24), tested ^111In-labeled (conjugate, 111In label; Kimeric antibody heavy chain variable region 7 (H07); Kimeric antibody light chain variable region 8 (L08)) VH: EVKLVESGGVLVKSGGSLKLSCAVSGFTFSNYGMSWVRQTPEKRLEWVATISNSGRYTYFPDSVKGPFAISRDNAKNNLYLQMSSLRSADTALYYCTRHLDYANYDAMDYWGQGTSVTVSS VL: DIVLTQSPASLAVSLGQRATISCRASKSVTTSDFSYMHWYQQKPGQPPKLLLYLASNLESGVPDRFSGSGSGYDFYLNIHPVEEEDAATYYCQHSREFPWTFGGGTKLEIK | – | – | 2.2 ± 0.6 | 1.8 ± 0.3 | 7.9 ± 1.9 | 5.0 ± 1.8 | 11.6 ± 0.9 | – | lowest | 70.1 | 9.5 | 0.43 | highest
